What was measured:
Test in all cases: cell_activity
[1] = test system: AGMT8-C1 ZFP-TF (Artificial); settings: control 1.00; napin promoter; effective activator in leaf, not in seed per p274
[2] = test system: CGMT4-C1 ZFP-TF (Artificial); settings: control 39.9; napin promoter, transgenic canola
[3] = test system: AGMT5-C1 ZFP-TF (Artificial); settings: control 1.00; napin promoter, transgenic Arabidopsis
[4] = test system: AGMT10-C1 ZFP-TF (Artificial); settings: control 1.00; napin promoter; effective activator in leaf
[5] = test system: AGMT9-C1 ZFP-TF (Artificial); settings: control 1.00; napin promoter, transgenic Arabidopsis
[6] = test system: CGMT6-C1 ZFP-TF (Artificial); settings: control 39.9; napin promoter, transgenic canola
[7] = test system: CGMT12-C1 ZFP-TF (Artificial); settings: control 39.9; napin promoter, transgenic canola
[8] = test system: CGMT3-C1 ZFP-TF (Artificial); settings: control 39.9; napin promoter, transgenic canola
[9] = test system: AGMT7-C1 ZFP-TF (Artificial); settings: control 1.00; napin promoter; 35S promoter 1.69; 5-fold GMT mRNA increase in leaf protoplasts (p271)
[10] = test system: CGMT10-C1 ZFP-TF (Artificial); settings: control 39.9; napin promoter, transgenic canola
[11] = test system: CGMT9-C1 ZFP-TF (Artificial); settings: control 39.9; napin promoter, transgenic canola
[12] = test system: AGMT6-C1 ZFP-TF (Artificial); settings: control 1.00; napin promoter, transgenic Arabidopsis

## GAAGAGGGTG (double strand) [ZFP C / AGMT8 target]
[1]
  activity (% alpha-tocopherol in T2 seed): 1.57

## GAGGAAGAT (double strand) [CGMT4 target]
[2]
  activity (% alpha-tocopherol in R1 seed): 51.9

## GAGGAAGGGG (double strand) [ZFP A / AGMT5 target]
[3]
  activity (% alpha-tocopherol in T2 seed): 4.45

## GAGGAGGAGG (double strand) [ZFP E / AGMT10 target]
[4]
  activity (% alpha-tocopherol in T2 seed): 2.86

## GAGGAGGATG (double strand) [ZFP D / AGMT9 target]
[5]
  activity (% alpha-tocopherol in T2 seed): 2.31

## GAGGTTGGA (double strand) [CGMT6 target]
[6]
  activity (% alpha-tocopherol in R1 seed): 59.6

## GAGGTTGGC (double strand) [CGMT12 target]
[7]
  activity (% alpha-tocopherol in R1 seed): 64.5

## GATGCTGGT (double strand) [CGMT3 target]
[8]
  activity (% alpha-tocopherol in R1 seed): 46.6

## GGGGAAAGGG (double strand) [ZFP B / AGMT7 target]
[9]
  activity (% alpha-tocopherol in T2 seed): 5.95

## GTAGAGGAC (double strand) [CGMT10 target]
[10]
  activity (% alpha-tocopherol in R1 seed): 54.2

## TAGTTGGAA (double strand) [CGMT9 target]
[11]
  activity (% alpha-tocopherol in R1 seed): 46.2

## TGGGTAGTC (double strand) [AGMT6 target]
[12]
  activity (% alpha-tocopherol in T2 seed): 1.74

— patent US7947873
